Laboratory results from article PMC11998529.

Biological target: mitochondrial antiviral signaling protein (MAVS), full length, Flag-tagged (human (cDNA from HEK293T)) (UniProt Q7Z434)
Chain of UniProt Q7Z434 (Q7Z434 whole entry): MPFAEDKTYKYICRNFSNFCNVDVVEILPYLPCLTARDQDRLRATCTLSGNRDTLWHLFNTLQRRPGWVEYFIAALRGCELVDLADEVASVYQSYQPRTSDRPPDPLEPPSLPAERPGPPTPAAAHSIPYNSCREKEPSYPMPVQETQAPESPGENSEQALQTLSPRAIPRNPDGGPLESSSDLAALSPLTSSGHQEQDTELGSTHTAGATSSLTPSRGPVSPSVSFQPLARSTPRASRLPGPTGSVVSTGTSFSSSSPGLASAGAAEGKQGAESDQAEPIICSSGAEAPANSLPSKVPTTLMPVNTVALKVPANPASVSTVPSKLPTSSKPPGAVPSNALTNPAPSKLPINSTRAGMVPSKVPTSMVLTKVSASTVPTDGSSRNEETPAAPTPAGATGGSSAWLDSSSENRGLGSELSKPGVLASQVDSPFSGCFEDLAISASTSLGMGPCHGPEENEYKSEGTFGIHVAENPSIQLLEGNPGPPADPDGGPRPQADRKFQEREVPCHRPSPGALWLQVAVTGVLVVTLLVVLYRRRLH

EV-D68 structural protein VP3, HA-tagged (from UniProt Q68T42 318-552) (natural protein)
inhibition of MAVS-activated NF-κB promoter activity, dual-luciferase reporter in HEK293T, 600 ng VP3-HA plasmid: 70%
